Reference: patent publication US20200297818A1 (ZEALAND PHARMA A S, published 2020)
*1 amine or outer side, *2 acyl side, *3 side chain or, on linkers, in order; H or OH if unused. Side-chain parts run from the residue outwards. [ ]: non-standard residue; d: D form. The star is where a group is joined. C20 diacid = O=C(O)CCCCCCCCCCCCCCCCCCC(=O)*; C18 diacid = O=C(O)CCCCCCCCCCCCCCCCC(=O)*; γGlu = O=C(O)[C@H](CCC(=O)[*:2])N[*:1]; AEEA = NCCOCCOCC(=O)O; Aib = CC(C)(N)C(=O)O

T1: human GLP-2 receptor (hGLP2-R) (human, UniProt O95838 1-553)
T1 sequence (looked up): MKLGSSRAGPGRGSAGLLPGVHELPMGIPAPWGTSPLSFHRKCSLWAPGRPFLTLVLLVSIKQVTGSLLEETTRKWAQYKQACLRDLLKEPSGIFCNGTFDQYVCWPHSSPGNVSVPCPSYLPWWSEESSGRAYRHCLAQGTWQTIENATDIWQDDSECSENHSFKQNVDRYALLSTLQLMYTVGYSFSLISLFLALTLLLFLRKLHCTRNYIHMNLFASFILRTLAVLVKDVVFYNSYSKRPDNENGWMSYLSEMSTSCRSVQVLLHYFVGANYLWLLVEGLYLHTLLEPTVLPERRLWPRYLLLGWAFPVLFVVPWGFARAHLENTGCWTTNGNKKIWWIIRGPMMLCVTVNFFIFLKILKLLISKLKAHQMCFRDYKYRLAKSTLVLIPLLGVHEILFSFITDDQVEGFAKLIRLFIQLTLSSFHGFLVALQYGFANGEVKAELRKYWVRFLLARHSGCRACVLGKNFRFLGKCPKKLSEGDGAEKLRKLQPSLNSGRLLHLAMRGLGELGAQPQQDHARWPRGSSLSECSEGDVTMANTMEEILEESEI


Experiments:
[1] = biological target: human glucagon-like peptide 1 receptor (GLP-1 R) (human, UniProt P43220 24-463); assay: cell-based or functional assay
[2] = biological target: T1, human GLP-2 receptor (hGLP2-R); assay: cell-based or functional assay

EC50 GLP-1 (nM); cAMP response [1]	EC50 GLP-2 (nM); cAMP response [2]	Binder
0.47 nM	0.054 nM	H-H[Aib]EGTFSSELATILDK([AEEA-Lys-Glu-Lys-γGlu-C20 diacid])QAARDFIAWLIQHKITD-OH [Compound 48]
0.089 nM	0.09 nM	H-H[Aib]EGSFTSELATILDK([AEEA-Lys-Glu-Lys-γGlu-C20 diacid])QAARDFIAWLIAHKITD-OH [Compound 58]
0.02 nM	0.075 nM	H-H[Aib]EGTFTSELATILDK([AEEA-Lys-Glu-Lys-γGlu-C20 diacid])QAARDFIAWLIQHKITD-OH [Compound 52]
0.02 nM	0.18 nM	H-H[Aib]EGTFTSELATILDK([Lys-Glu-Lys-γGlu-C20 diacid])QAARDFIAWLIQHKITD-OH [Compound 51]
39 nM	–	HGDGSFSDEMNTILDNLAARDFINWLIQTKITD [Teduglutide]
0.093 nM	0.083 nM	H-H[Aib]EGSFTSELATILDK([AEEA-Lys-Glu-Lys-γGlu-C20 diacid])QAARDFIAWLIEHKITD-OH [Compound 57]
0.076 nM	0.24 nM	H-H[Aib]EGSFTSEK([AEEA-Lys-Glu-Lys-γGlu-C20 diacid])ATILDEQAARDFIAWLIEHKITD-OH [Compound 53]
0.11 nM	0.78 nM	H-H[Aib]EGSFTSEK([AEEA-AEEA-Lys-Glu-Lys-γGlu-C20 diacid])ATILDEQAARDFIAWLIEHKITD-OH [Compound 55]
0.088 nM	0.11 nM	H-H[Aib]EGSFTSELATILDK([AEEA-Lys-Glu-Lys-γGlu-C20 diacid])KAARDFIAWLIEHKITD-OH [Compound 59]
0.27 nM	0.044 nM	H-H[Aib]EGTFSSELATILDK([AEEA-Lys-Glu-Lys-γGlu-C18 diacid])QAARDFIAWLIEHKITD-OH [Compound 49]
0.27 nM	0.15 nM	H-H[Aib]EGSFTSELATILDAK([AEEA-Lys-Glu-Lys-γGlu-C20 diacid])AARDFIAWLIEHKITD-OH [Compound 62]
0.097 nM	0.074 nM	H-H[Aib]EGSFTSELATILDK([AEEA-AEEA-Lys-Glu-Lys-γGlu-C20 diacid])QAARDFIAWLIEHKITD-OH [Compound 60]
0.63 nM	0.35 nM	HXEGTFSSELATILDXEAARDFIAWLIEHKITD (HELM PEPTIDE1{H.[Aib].E.G.T.F.S.S.E.L.A.T.I.L.D.K.E.A.A.R.D.F.I.A.W.L.I.E.H.K.I.T.D}|PEPTIDE2{[O=C(O)CCCCCCCCCCCCCCCCC(=O)[*:2]].[gGlu]}$PEPTIDE1,PEPTIDE2,16:R3-2:R2$$$V2.0; SMILES CC[C@H](C)[C@H](NC(=O)[C@H](Cc1ccccc1)NC(=O)[C@H](CC(=O)O)NC(=O)[C@H](CCCNC(=N)N)NC(=O)[C@H](C)NC(=O)[C@H](C)NC(=O)[C@H](CCC(=O)O)NC(=O)[C@H](CCCCNC(=O)CC[C@H](NC(=O)CCCCCCCCCCCCCCCCC(=O)O)C(=O)O)NC(=O)[C@H](CC(=O)O)NC(=O)[C@H](CC(C)C)NC(=O)[C@@H](NC(=O)[C@@H](NC(=O)[C@H](C)NC(=O)[C@H](CC(C)C)NC(=O)[C@H](CCC(=O)O)NC(=O)[C@H](CO)NC(=O)[C@H](CO)NC(=O)[C@H](Cc1ccccc1)NC(=O)[C@@H](NC(=O)CNC(=O)[C@H](CCC(=O)O)NC(=O)C(C)(C)NC(=O)[C@@H](N)Cc1c[nH]cn1)[C@@H](C)O)[C@@H](C)O)[C@@H](C)CC)C(=O)N[C@@H](C)C(=O)N[C@@H](Cc1c[nH]c2ccccc12)C(=O)N[C@@H](CC(C)C)C(=O)N[C@H](C(=O)N[C@@H](CCC(=O)O)C(=O)N[C@@H](Cc1c[nH]cn1)C(=O)N[C@@H](CCCCN)C(=O)N[C@H](C(=O)N[C@H](C(=O)N[C@@H](CC(=O)O)C(=O)O)[C@@H](C)O)[C@@H](C)CC)[C@@H](C)CC) [Compound 1]
0.13 nM	0.25 nM	HXEGSFTSELATILDXEAARDFIAWLIEHKITD (HELM PEPTIDE1{H.[Aib].E.G.S.F.T.S.E.L.A.T.I.L.D.K.E.A.A.R.D.F.I.A.W.L.I.E.H.K.I.T.D}|PEPTIDE2{[O=C(O)CCCCCCCCCCCCCCCCC(=O)[*:2]].[gGlu]}$PEPTIDE1,PEPTIDE2,16:R3-2:R2$$$V2.0; SMILES CC[C@H](C)[C@H](NC(=O)[C@H](Cc1ccccc1)NC(=O)[C@H](CC(=O)O)NC(=O)[C@H](CCCNC(=N)N)NC(=O)[C@H](C)NC(=O)[C@H](C)NC(=O)[C@H](CCC(=O)O)NC(=O)[C@H](CCCCNC(=O)CC[C@H](NC(=O)CCCCCCCCCCCCCCCCC(=O)O)C(=O)O)NC(=O)[C@H](CC(=O)O)NC(=O)[C@H](CC(C)C)NC(=O)[C@@H](NC(=O)[C@@H](NC(=O)[C@H](C)NC(=O)[C@H](CC(C)C)NC(=O)[C@H](CCC(=O)O)NC(=O)[C@H](CO)NC(=O)[C@@H](NC(=O)[C@H](Cc1ccccc1)NC(=O)[C@H](CO)NC(=O)CNC(=O)[C@H](CCC(=O)O)NC(=O)C(C)(C)NC(=O)[C@@H](N)Cc1c[nH]cn1)[C@@H](C)O)[C@@H](C)O)[C@@H](C)CC)C(=O)N[C@@H](C)C(=O)N[C@@H](Cc1c[nH]c2ccccc12)C(=O)N[C@@H](CC(C)C)C(=O)N[C@H](C(=O)N[C@@H](CCC(=O)O)C(=O)N[C@@H](Cc1c[nH]cn1)C(=O)N[C@@H](CCCCN)C(=O)N[C@H](C(=O)N[C@H](C(=O)N[C@@H](CC(=O)O)C(=O)O)[C@@H](C)O)[C@@H](C)CC)[C@@H](C)CC) [Compound 2]
0.042 nM	0.33 nM	HXEGTFTSELATILDXEAARDFIAWLIEHKITD (HELM PEPTIDE1{H.[Aib].E.G.T.F.T.S.E.L.A.T.I.L.D.K.E.A.A.R.D.F.I.A.W.L.I.E.H.K.I.T.D}|PEPTIDE2{[O=C(O)CCCCCCCCCCCCCCCCC(=O)[*:2]].[gGlu]}$PEPTIDE1,PEPTIDE2,16:R3-2:R2$$$V2.0; SMILES CC[C@H](C)[C@H](NC(=O)[C@H](Cc1ccccc1)NC(=O)[C@H](CC(=O)O)NC(=O)[C@H](CCCNC(=N)N)NC(=O)[C@H](C)NC(=O)[C@H](C)NC(=O)[C@H](CCC(=O)O)NC(=O)[C@H](CCCCNC(=O)CC[C@H](NC(=O)CCCCCCCCCCCCCCCCC(=O)O)C(=O)O)NC(=O)[C@H](CC(=O)O)NC(=O)[C@H](CC(C)C)NC(=O)[C@@H](NC(=O)[C@@H](NC(=O)[C@H](C)NC(=O)[C@H](CC(C)C)NC(=O)[C@H](CCC(=O)O)NC(=O)[C@H](CO)NC(=O)[C@@H](NC(=O)[C@H](Cc1ccccc1)NC(=O)[C@@H](NC(=O)CNC(=O)[C@H](CCC(=O)O)NC(=O)C(C)(C)NC(=O)[C@@H](N)Cc1c[nH]cn1)[C@@H](C)O)[C@@H](C)O)[C@@H](C)O)[C@@H](C)CC)C(=O)N[C@@H](C)C(=O)N[C@@H](Cc1c[nH]c2ccccc12)C(=O)N[C@@H](CC(C)C)C(=O)N[C@H](C(=O)N[C@@H](CCC(=O)O)C(=O)N[C@@H](Cc1c[nH]cn1)C(=O)N[C@@H](CCCCN)C(=O)N[C@H](C(=O)N[C@H](C(=O)N[C@@H](CC(=O)O)C(=O)O)[C@@H](C)O)[C@@H](C)CC)[C@@H](C)CC) [Compound 3]
0.44 nM	0.048 nM	H-H[Aib]EGTFSSELATILDK([AEEA-Lys-Glu-Lys-γGlu-C18 diacid])QAARDFIAWLIQHKITD-OH [Compound 47]
0.034 nM	0.99 nM	H-H[Aib]EGTFTSEK([AEEA-Lys-Glu-Lys-γGlu-C20 diacid])ATILDEQAARDFIAWLIEHKITD-OH [Compound 54]
0.31 nM	0.056 nM	H-H[Aib]EGTFSSELATILDK([AEEA-Lys-Glu-Lys-γGlu-C20 diacid])QAARDFIAWLIEHKITD-OH [Compound 50]
0.13 nM	0.2 nM	H-H[Aib]EGSFTSELATILEGK([AEEA-Lys-Glu-Lys-γGlu-C20 diacid])AARDFIAWLIEHKITD-OH [Compound 61]
0.033 nM	0.076 nM	H-H[Aib]EGTFTSELATILDK([AEEA-Lys-Glu-Lys-γGlu-C20 diacid])QAARDFIAWLIEHKITD-OH [Compound 56]
